Assay [1] concerns the target T1, Anti-PSMA Fab (SEQ ID NOs: 19, 20).
T1 construct: Biotinylated PSMA Fab captured on neutravidin coated plates in the phage ELISA; also called 006 PSMA Fab
Put plainly: phage binding ELISA on captured PSMA Fab pre-incubated with PSMA antigen as competitor, anti-M13 HRP detection. (ELISA stands for enzyme-linked immunosorbent assay.)

Assay [2] has the same target. In words: phage binding ELISA; clonal phage supernatant on biotinylated PSMA Fab captured on neutravidin plates, anti-M13 HRP detection.
For assay [3], the target named is T2, Anti-PSMA Fab (SEQ ID NOs: 19, 20).
T2 construct: Biotinylated and captured on neutravidin coated plates in the phage ELISA; also called 006 PSMA Fab
Put plainly: phage binding ELISA on captured PSMA Fab; competitor PSMA antigen pre-incubated in the well.

The target is the same in assay [4]. In words: phage binding ELISA; biotinylated PSMA Fab on neutravidin plate, bound phage detected with anti-M13 HRP.
In assay [5] the target is T3, Anti-PSMA Fab (SEQ ID NOs: 19, 20) (biotinylated (site not stated)).
T3 construct: also called 006 PSMA Fab
Put plainly: phage ELISA; biotinylated PSMA Fab on neutravidin plate, clonal phage supernatant, anti-M13 HRP detection.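 Further: wells preincubated with PSMA antigen in blocking buffer or with blocking buffer only before clonal phage were added for a short incubation, then bound phage detected.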

The target of assay [6] is T3, Anti-PSMA Fab (SEQ ID NOs: 19, 20). Put plainly: phage ELISA; biotinylated PSMA Fab on neutravidin plate, wells pre-incubated with PSMA antigen as competitor, anti-M13 HRP detection.

Where no end group is shown, it is not given here.

MMKWCIPTWMCEME [Phage-1912]: the “Anti-PSMA Fab signal in the presence of PSMA” value in assay [1] is 0.132. Besides, the “Anti-PSMA Fab (SEQ ID NOs: 19, 20) signal” value in assay [2] came to 2.

Turning to GDPWCIPAWMCMEF [Phage-1911], the “Anti-PSMA Fab signal in the presence of PSMA” value in assay [1] came to 0.088. Moreover, in assay [2], the “Anti-PSMA Fab (SEQ ID NOs: 19, 20) signal” value stood at 2.01.

B1: Phage-1902 (peptide)
peptide: LIPWCIPAWMCTSD
modifications: cysteine pairing not given here; also: displayed as fusion to phage pIII
notes: Peptide-180 library clone, tested as clonal phage supernatant; not shown: pIII of the bacteriophage to which the peptide is fused
In the case of B1, the “Anti-PSMA Fab signal in the presence of PSMA” value in assay [3] worked out at 0.0863. For the same molecule, the “Anti-PSMA Fab (SEQ ID NOs: 19, 20) signal” value in assay [4] was determined as 2.03.

B2: Phage-1899 (peptide)
peptide: SVKMCTPAWMCSGF
modifications: cysteine pairing not given here; also: fused to phage pIII, sequence and linker not given here
notes: as for B1
B2: the “Anti-PSMA Fab signal in the presence of PSMA” value in assay [3] turned out to be 0.0752. For the same molecule, the “Anti-PSMA Fab (SEQ ID NOs: 19, 20) signal” value in assay [4] was found to be 2.03.

B3: Phage-1894 (peptide)
peptide: FEKWCTPAWMCAGW
modifications: cysteine pairing not given here; also: fused to phage pIII, sequence and linker not given here
notes: as for B1
For B3, in assay [3], the “Anti-PSMA Fab signal in the presence of PSMA” value is 0.0792. Also, the “Anti-PSMA Fab (SEQ ID NOs: 19, 20) signal” value in assay [4] came out at 2.04.

B4: Phage-1921 (peptide)
peptide: VDRWCVPVWMCEGL
modifications: cysteine pairing not given here; also: displayed as fusion to phage pIII
notes: Clonal phage of the Peptide-180 library, tested as crude supernatant; not shown: fused to the pIII filament protein of the bacteriophage
Turning to B4, the “Phage binding ELISA, Anti-PSMA Fab (SEQ ID NOs: 19, 20) signal” value in assay [5] worked out at 1.99. Moreover, the “Phage binding ELISA, Anti-PSMA Fab signal in the presence of PSMA” value (“Phage binding ELISA … of PSMA” for short) in assay [6] was 0.124.

B5: Phage-1893 (peptide)
peptide: FDKWCIPPWMCQAL
modifications: cysteine pairing not given here; also: fused to phage pIII, sequence and linker not given here
notes: as for B1
Consider B5, for which the “Anti-PSMA Fab signal in the presence of PSMA” value in assay [3] was 0.112. Moreover, in assay [4], the “Anti-PSMA Fab (SEQ ID NOs: 19, 20) signal” value worked out at 2.04.

B6: Phage-1922 (peptide)
peptide: LVNWCIPMWMCEGF
notes: as for B4
As for B6, the “Phage binding ELISA, Anti-PSMA Fab (SEQ ID NOs: 19, 20) signal” value in assay [5] came out at 1.99. For the same molecule, the “Phage binding ELISA … of PSMA” value in assay [6] was 0.107.

As for VSKLCIPMWMCETS [Phage-1919], the “Anti-PSMA Fab signal in the presence of PSMA” value in assay [1] amounted to 0.064. Moreover, the “Anti-PSMA Fab (SEQ ID NOs: 19, 20) signal” value in assay [2] came to 1.99.

B7: Phage-1905 (peptide)
peptide: EIRLCTPSWMCMGF
modifications: cysteine pairing not given here; also: displayed as fusion to phage pIII
notes: as for B1
For the molecule B7, in assay [3], the “Anti-PSMA Fab signal in the presence of PSMA” value was determined as 0.0792. In addition, in assay [4], the “Anti-PSMA Fab (SEQ ID NOs: 19, 20) signal” value was 2.02.

On to WDNWCIPPWMCIGF [Phage-1908], for which the “Anti-PSMA Fab signal in the presence of PSMA” value in assay [1] was determined as 0.186. Further, the “Anti-PSMA Fab (SEQ ID NOs: 19, 20) signal” value in assay [2] was 2.02.

B8: Phage-1904 (peptide)
peptide: DVKWCIPAWMCEGF
modifications: cysteine pairing not given here; also: displayed as fusion to phage pIII
notes: as for B1
Regarding B8, the “Anti-PSMA Fab signal in the presence of PSMA” value in assay [3] turned out to be 0.105. Besides, in assay [4], the “Anti-PSMA Fab (SEQ ID NOs: 19, 20) signal” value is 2.02.

Regarding MMKWCTPAWMCEEA [Phage-1909], in assay [1], the “Anti-PSMA Fab signal in the presence of PSMA” value is 0.0691. Moreover, the “Anti-PSMA Fab (SEQ ID NOs: 19, 20) signal” value in assay [2] was 2.01.

For SAHMCIPPWMCLHT [Phage-1907], the “Anti-PSMA Fab signal in the presence of PSMA” value in assay [1] was 0.133. In addition, the “Anti-PSMA Fab (SEQ ID NOs: 19, 20) signal” value in assay [2] stood at 2.02.

On to GEYWCIPSWMCQLY [Phage-1920], for which the “Anti-PSMA Fab signal in the presence of PSMA” value in assay [1] amounted to 0.179. Further, the “Anti-PSMA Fab (SEQ ID NOs: 19, 20) signal” value in assay [2] was 1.99.

B9: Phage-1924 (peptide)
peptide: TEKLCIPEWMCFGM
notes: as for B4
Regarding B9, the “Phage binding ELISA, Anti-PSMA Fab (SEQ ID NOs: 19, 20) signal” value in assay [5] came out at 1.99. Moreover, the “Phage binding ELISA … of PSMA” value in assay [6] worked out at 0.0644.

B10: Phage-1900 (peptide)
peptide: VSRLCIPTWMCDYS
modifications: cysteine pairing not given here; also: displayed as fusion to phage pIII
notes: as for B1
For B10, the “Anti-PSMA Fab signal in the presence of PSMA” value in assay [3] was determined as 0.0757. Moreover, the “Anti-PSMA Fab (SEQ ID NOs: 19, 20) signal” value in assay [4] was 2.03.

B11: Phage-1925 (peptide)
peptide: TEMWCKPAWMCTGF
notes: as for B4
For B11, the “Phage binding ELISA, Anti-PSMA Fab (SEQ ID NOs: 19, 20) signal” value in assay [5] came out at 1.99. Also, the “Phage binding ELISA … of PSMA” value in assay [6] was 0.0938.

B12: Phage-1896 (peptide)
peptide: VLKWCTPAWMCEIF
modifications: cysteine pairing not given here; also: fused to phage pIII, sequence and linker not given here
notes: as for B1
Consider B12, for which the “Anti-PSMA Fab signal in the presence of PSMA” value in assay [3] is 0.141. Moreover, the “Anti-PSMA Fab (SEQ ID NOs: 19, 20) signal” value in assay [4] amounted to 2.03.

B13: Phage-1923 (peptide)
peptide: VEKWCIPTWMCELS
notes: as for B4
Regarding B13, the “Phage binding ELISA, Anti-PSMA Fab (SEQ ID NOs: 19, 20) signal” value in assay [5] worked out at 1.99. Besides, the “Phage binding ELISA … of PSMA” value in assay [6] was determined as 0.0767.

B14: Phage-1897 (peptide)
peptide: MEKLCIPAWMCDGM
modifications: cysteine pairing not given here; also: fused to phage pIII, sequence and linker not given here
notes: as for B1
As to B14, the “Anti-PSMA Fab signal in the presence of PSMA” value in assay [3] is 0.279. The “Anti-PSMA Fab (SEQ ID NOs: 19, 20) signal” value in assay [4] turned out to be 2.03.

B15: Phage-1903 (peptide)
peptide: IDMRCTPNWMCIGF
modifications: cysteine pairing not given here; also: displayed as fusion to phage pIII
notes: as for B1
Consider B15, for which the “Anti-PSMA Fab signal in the presence of PSMA” value in assay [3] worked out at 0.081. Moreover, in assay [4], the “Anti-PSMA Fab (SEQ ID NOs: 19, 20) signal” value came out at 2.03.

As for SFAWCIPPWMCEIT [Phage-1915], the “Anti-PSMA Fab signal in the presence of PSMA” value in assay [1] turned out to be 0.127. Moreover, the “Anti-PSMA Fab (SEQ ID NOs: 19, 20) signal” value in assay [2] is 2.

Consider FTIWCIPEWMCLHE [Phage-1916], for which the “Anti-PSMA Fab signal in the presence of PSMA” value in assay [1] was determined as 0.0999. In assay [2], the “Anti-PSMA Fab (SEQ ID NOs: 19, 20) signal” value stood at 2.

Take IEKMCKPAWMCWAD [Phage-1917]: the “Anti-PSMA Fab signal in the presence of PSMA” value in assay [1] turned out to be 0.0706. For the same molecule, in assay [2], the “Anti-PSMA Fab (SEQ ID NOs: 19, 20) signal” value worked out at 2.

Consider EKIWCVPAWMCTWL [Phage-1918], for which the “Anti-PSMA Fab signal in the presence of PSMA” value in assay [1] was 0.121. In addition, the “Anti-PSMA Fab (SEQ ID NOs: 19, 20) signal” value in assay [2] stood at 1.99.

B16: Phage-1898 (peptide)
peptide: AEKWCFPAWMCERP
modifications: cysteine pairing not given here; also: fused to phage pIII, sequence and linker not given here
notes: as for B1
On to B16, for which the “Anti-PSMA Fab signal in the presence of PSMA” value in assay [3] came to 0.0803. Besides, in assay [4], the “Anti-PSMA Fab (SEQ ID NOs: 19, 20) signal” value came to 2.03.

Turning to GDILCRPEWMCTGF [Phage-1910], the “Anti-PSMA Fab signal in the presence of PSMA” value in assay [1] worked out at 0.111. For the same molecule, the “Anti-PSMA Fab (SEQ ID NOs: 19, 20) signal” value in assay [2] was found to be 2.01.

B17: Phage-1895 (peptide)
peptide: WEKMCVPSWMCHFS
modifications: cysteine pairing not given here; also: fused to phage pIII, sequence and linker not given here
notes: as for B1
As to B17, the “Anti-PSMA Fab signal in the presence of PSMA” value in assay [3] turned out to be 0.0735. Besides, the “Anti-PSMA Fab (SEQ ID NOs: 19, 20) signal” value in assay [4] amounted to 2.03.

For the molecule ESIRCIPLWMCEGF [Phage-1913], the “Anti-PSMA Fab signal in the presence of PSMA” value in assay [1] was 0.0894. Further, in assay [2], the “Anti-PSMA Fab (SEQ ID NOs: 19, 20) signal” value stood at 2.

With VIKWCTPAWMCTAL [Phage-1914], the “Anti-PSMA Fab signal in the presence of PSMA” value in assay [1] amounted to 0.0733. For the same molecule, in assay [2], the “Anti-PSMA Fab (SEQ ID NOs: 19, 20) signal” value was determined as 2.

As to VMKWCIPEWMCYML [Phage-1906], the “Anti-PSMA Fab signal in the presence of PSMA” value in assay [1] is 0.204. Further, in assay [2], the “Anti-PSMA Fab (SEQ ID NOs: 19, 20) signal” value is 2.02.

B18: Phage-1901 (peptide)
peptide: TDMWCTPMWMCMGF
modifications: cysteine pairing not given here; also: displayed as fusion to phage pIII
notes: as for B1
With B18, the “Anti-PSMA Fab signal in the presence of PSMA” value in assay [3] came out at 0.0829. For the same molecule, the “Anti-PSMA Fab (SEQ ID NOs: 19, 20) signal” value in assay [4] turned out to be 2.03.
